Assay results taken from US10058586B2, “Use of human small leucine zipper protein in adipocyte differentiation procedure” (Korea University Research and Business Foundation, priority 2013, dated 2018).

What was measured:
[1] = system: primary preadipocytes and mouse embryonic fibroblasts (MEFs); test: Adipocyte differentiation of primary preadipocytes and MEFs isolated from sLZIP TG mice; assay type: cell-based; details: cells isolated from sLZIP TG mice vs wild type mice
Text: In order to generate human sLZIP transgenic (TG) mice, sLZIP genes were cloned into a pCMV-flag expression vector. The sLZIP TG mice were generated by Macrogen, Inc (Seoul, Korea). Transgenic founders were mated with wild type C57BL/6 mice to produce F1 heterozygotes. F1-F4 generations were genetically screened for transgenes at an age of 2 weeks old. The following two primers were used to amplify genomic DNA in order to identify wild type and TG mice: [NT] and 5'-[NT]3.' Adipocyte differentiation is a well-regulated procedure. PPARγ2 is a major regulator of adipogenesis, is highly expressed during adipocyte differentiation, and regulates expression of genes involved in adipogenesis. An effect of sLZIP on adipogenesis in vivo was examined. For this purpose, in order to produce human sLZIP transgenic mice, sLZIP genes were cloned in a pCMV-flag expression vector. The sLZIP TG mice were produced in Macrogen, Inc (Seoul, Korea) (FIG. 8A). Preadipocytes were isolated from epididymal adipose tissues of sLZIP TG mice. […] A promoter activity was measured according to luciferase analysis (FIG. 8B). […] Total RNA was extracted from the cells, and an mRNA expression level of mouse LZIPs was measured using RT-PCR analysis. […] Total RNA was isolated from the cells, and an mRNA expression level of mouse LZIPs was measured using RT-PCR (FIG. 9C) and real-time PCR (FIG. 9D).

[2] = system: FABP4 and other PPARγ2 target genes; test: RT-PCR and real-time PCR of PPARγ2 target genes in differentiated preadipocytes of sLZIP TG mice; assay type: cell-based, mouse; details: sLZIP TG mice preadipocytes differentiated into adipocytes
Description: According to instructions of the manufacturer, a TRIzol reagent (Invitrogen, Carlsbad, Calif.) was added to directly lyse cells in a culture dish. Accupower RT PreMix (BioNeer, Daejeon, Korea) was used to synthesize cDNA from 2 μg of total RNA. A reaction was performed for 60 minutes at 42° C. and for 5 minutes at 94° C. PCR amplification was performed using oligomers listed in Table 2 and a Hipi PCR Mix Kit (ELPIS). As an internal control group, GAPDH was amplified. A PCR product was subjected to electrophoresis in 1-2% (w/v) agarose gel containing 0.5 μg/mL ethidium bromide. A size of the PCR product was measured by comparing it with 1 kb DNA ladder marker (Invitrogen). An intensity of bands amplified according to RT-PCR was analyzed using MultiImage™ Light Cabinet (version 5.5, Alpha Innotech Corp., San Leandro, Calif.).
Real-time PCR was performed in LightCycler 480 using a SYBR Green Master Mix (Roche, Mannheim, Germany). β-actin was used as an internal control group. A target gene expression level rate with respect to β-actin was calculated using CT method. A Ct value is defined as a PCR cycle number at which a fluorescence signal reaches a fixed target threshold. Experiments were technically repeated three times for each experiment.
Adipocyte differentiation is a well-regulated procedure. […] A promoter activity was measured according to luciferase analysis (FIG. 8B). […]

[3] = system: multipotential mesenchymal progenitor cells; test: Oil red O staining, differentiation of multipotential mesenchymal progenitor cells into adipocytes; assay type: cell-based; details: C3H10T1/2 and 3T3-L1 cells

B1: sLZIP: human small leucine-zipper protein, isoform of LZIP, 354 amino acids, no transmembrane domain; GenBank FJ263669, SEQ ID NO: 1 (protein, listed as Homo sapiens)
chain: MELELDAGDQDLLAFLLEESGDLGTAPDEAVRAPLDWALPLSEVPSDWEVDDLLCSLLSPPASLNILSSSNPCLVHHDHTYSLPRETVSMDLESESCRKEGTQMTPQHMEELAEQEIARLVLTDEEKSLLEKEGLILPETLPLTKTEEQILKRVRRKIRNKRSAQESRRKKKVYVGGLESRVLKYTAQNMELQNKVQLLEEQNLSLLDQLRKLQAMVIEISNKTSSSSMYSSDTRGSLPAEHGVLSRQLRALPSEDPYQLELPALQSEVPKDSTHQWLDGSDCVLQAPGNTSCLLHYMPQAPSAEPPLEWPFPDLFSEPLCRGPILPLQANLTRKGGWLPTGSPSVILQDRYSG
For B1, the adipocyte differentiation [1] was “inhibited more than in wild type mice”, the “expression of FABP4 and other PPARγ2 target genes (C/EBPα, LPL) mRNA” value [2] was “down-regulated” and the “adipocyte differentiation (oil red O staining)” value [3] was “inhibited adipocyte differentiation”.
